Experimental data reported in publication PMC3551895.

Biological target: vibrillin βγ-crystallin domain (Vibrio cholerae)
Assay: SEC

## vibrillin βγ-crystallin domain (domain or fragment)
  stoichiometry N: 6
